Values of other authors in PMC4557399.

How the values were obtained:
[1] = biological target: F1-ATP synthase beta subunit (Bos taurus) (UniProt P00829); assay: bovine retinal endothelial cell binding
[2] = biological target: F1-ATP synthase beta subunit (UniProt P06576); assay: surface plasmon resonance
Chain of F1-ATP synthase beta subunit (P06576 48-529): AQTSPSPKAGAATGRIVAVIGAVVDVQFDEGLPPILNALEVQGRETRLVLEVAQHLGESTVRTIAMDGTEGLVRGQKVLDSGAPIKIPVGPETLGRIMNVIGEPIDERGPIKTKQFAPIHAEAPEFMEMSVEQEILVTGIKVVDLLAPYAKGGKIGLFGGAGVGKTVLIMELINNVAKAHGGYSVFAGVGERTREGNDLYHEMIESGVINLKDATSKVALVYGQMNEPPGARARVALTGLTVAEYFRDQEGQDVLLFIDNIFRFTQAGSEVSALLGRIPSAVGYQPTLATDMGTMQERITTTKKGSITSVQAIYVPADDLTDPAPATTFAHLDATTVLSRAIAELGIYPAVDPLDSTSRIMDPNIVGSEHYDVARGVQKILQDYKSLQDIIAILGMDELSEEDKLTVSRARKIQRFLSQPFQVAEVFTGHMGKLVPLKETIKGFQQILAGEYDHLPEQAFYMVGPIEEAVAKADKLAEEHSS

Chain of PEDF (P36955 20-418): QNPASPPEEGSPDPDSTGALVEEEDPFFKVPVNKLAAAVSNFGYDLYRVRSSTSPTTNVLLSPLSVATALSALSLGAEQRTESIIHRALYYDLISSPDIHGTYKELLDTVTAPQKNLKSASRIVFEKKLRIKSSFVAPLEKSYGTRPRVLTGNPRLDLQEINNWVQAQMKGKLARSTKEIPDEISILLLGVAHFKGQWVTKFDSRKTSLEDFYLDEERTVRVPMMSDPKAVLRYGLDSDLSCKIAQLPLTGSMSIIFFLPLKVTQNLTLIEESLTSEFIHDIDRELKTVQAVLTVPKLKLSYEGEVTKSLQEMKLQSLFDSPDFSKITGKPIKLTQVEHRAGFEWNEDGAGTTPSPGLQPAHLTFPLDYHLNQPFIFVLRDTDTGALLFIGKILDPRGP
Chain of F1-ATP synthase beta subunit (Bos taurus) (P00829 47-528): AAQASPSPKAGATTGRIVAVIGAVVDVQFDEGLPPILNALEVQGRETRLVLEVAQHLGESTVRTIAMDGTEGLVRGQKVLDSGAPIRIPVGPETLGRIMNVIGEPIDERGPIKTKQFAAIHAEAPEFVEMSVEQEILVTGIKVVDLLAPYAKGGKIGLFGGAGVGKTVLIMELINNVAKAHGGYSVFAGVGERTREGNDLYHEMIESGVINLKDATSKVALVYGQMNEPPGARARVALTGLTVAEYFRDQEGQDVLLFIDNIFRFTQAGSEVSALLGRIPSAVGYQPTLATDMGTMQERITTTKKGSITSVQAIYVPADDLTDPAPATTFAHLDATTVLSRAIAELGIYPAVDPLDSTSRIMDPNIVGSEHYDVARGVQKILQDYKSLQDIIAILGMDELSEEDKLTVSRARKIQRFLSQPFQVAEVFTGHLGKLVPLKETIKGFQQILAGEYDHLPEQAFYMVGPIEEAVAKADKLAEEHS

- Kd [1]: 4 nM
- Kd [2]: 1.51 nM
Substance: PEDF (from UniProt P36955)
